In patent US20190023810A1 (MIT, published 2019):

Legend:
CD20 = target: T1, CD20 (UniProt P11836 1-297, limits assumed); test: CD20 binding titration; legend and text call it an ELISA, but the y axis 'Mean APC-A Intensity' fits the flow cytometry cell-based binding assay on Raji cells
T1 sequence (looked up): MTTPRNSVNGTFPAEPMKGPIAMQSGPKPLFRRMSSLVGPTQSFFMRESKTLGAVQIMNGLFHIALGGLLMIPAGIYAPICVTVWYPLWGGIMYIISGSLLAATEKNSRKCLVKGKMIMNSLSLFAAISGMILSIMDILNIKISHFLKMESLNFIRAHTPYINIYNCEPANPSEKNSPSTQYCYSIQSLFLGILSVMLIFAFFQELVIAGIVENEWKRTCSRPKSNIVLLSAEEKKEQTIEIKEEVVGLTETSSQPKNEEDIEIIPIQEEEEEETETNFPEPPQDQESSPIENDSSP

PD1 = PD1 (UniProt Q15116 25-167, limits assumed); test: sandwich (dual antigen) ELISA for PD1 and VEGF bound at once; the filing does not say which antigen is coated and which is detected
Chain of PD1 (Q15116 25-167 limits assumed): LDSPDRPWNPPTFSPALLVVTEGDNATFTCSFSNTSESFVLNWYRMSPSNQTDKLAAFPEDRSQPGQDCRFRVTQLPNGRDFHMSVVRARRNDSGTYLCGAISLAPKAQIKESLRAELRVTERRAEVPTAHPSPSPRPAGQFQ

VEGF = VEGF (UniProt P15692-4 27-191, limits assumed); test: as above
Chain of VEGF (P15692 other isoform, or with tags, fused parts or gaps limits assumed): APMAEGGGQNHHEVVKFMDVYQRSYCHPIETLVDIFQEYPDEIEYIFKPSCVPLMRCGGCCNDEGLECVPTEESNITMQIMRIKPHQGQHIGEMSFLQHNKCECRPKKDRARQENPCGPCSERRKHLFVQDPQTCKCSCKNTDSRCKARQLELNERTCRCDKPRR

HER3 [1] = target: T2, HER3 (UniProt P21860 20-643, limits assumed); test: single antigen ELISA, HER3 coated, anti-human IgG HRP detection
Experimental: (§1) Briefly 96-well plates were coated overnight at […] with appropriate antigen. The plates were washed and blocked with 1% blotto (Santa Cruz Biotechnologies). Serial dilution of antibodies were added to the plate and incubated for 2 hours at room temperature. Antigen bound IgG was detected using RbαHu IgG HRP Conjugated secondary antibody (Jackson ImmunoResearch) followed by TMB substrate (KPL) addition.

HER1 = target: T3, HER1 (UniProt P00533 25-645, limits assumed); test: single antigen ELISA, antigen coated; printed as Kd′, from a 4 parametric fit
T3 construct: also called EGFR
Experimental: as §1

HER3 [2] = target: T2, HER3; test: as above
Experimental: as §1

B1: rituximab/obinutuzumab bispecific antibody (bispecific antibody, human IgG1, kappa)
light 1: QIVLSQSPAILSASPGEKVTMTCRASSSVSYIHWFQQKPGSSPKPWIYATSNLASGVPVRFSGSGSGTSYSLTISRVEAEDAATYYCQQWTSNPPTFGGGTKLEIKRTVAAPSVFIFPPSDEDLKSGTASVVCLLDNFYPREAKVQWKVDNALQSGNSQESVTEQDSKDSTYSLSSTLTLSKADYEKHKVYACEVTHQGLSSPVTKSFNRGEC
heavy 1: not shown
light 2: DIVMTQTPLSLPVTPGEPASISCRSSKSLLHSNGITYLYWYLQKPGQSPQLLIYQMSNLVSGVPDRFSGSGSGTDFTLKISRVEAEDVGVYYCAQNLELPYTFGGGTKVEIKRTVAAPSVFIFPPSDEKLKSGTASVVCLLKNFYPREAKVQWKVDNALQSGNSQESVTEQDSKDSTYSLSSALTLSKADYEKHKVYACEVTHQGLSSPVTKSFNRGEC
heavy 2: not shown
notes: Human IgG1/kappa bispecific with four different chains; Both arms are anti-CD20; also called Rxm/Ga101; Rxm/GA101
B1 was tested, and the “EC50 (read off the curve)” value (CD20) was roughly 2 µg/mL.

B2: nivolumab/bevacizumab bispecific antibody (bispecific antibody, human IgG1, kappa)
light 1: not shown
heavy 1: not shown
light 2: DIQMTQSPSSLSASVGDRVTITCSASQDISNYLNWYQQKPGKAPKVLIYFTSSLHSGVPSRFSGSGSGTDFTLTISSLQPEDFATYYCQQYSTVPWTFGQGTKVEIKRTVAAPSVFIFPPSDEKLKSGTASVVCLLKNFYPREAKVQWKVDNALQSGNSQESVTEQDSKDSTYSLSSALTLSKADYEKHKVYACEVTHQGLSSPVTKSFNRGEC
heavy 2: not shown
notes: Human IgG1/kappa bispecific with four different chains; also called BsAb
B2 was tested, and the “EC50 (read off the curve)” value (PD1) was roughly 0.2 µg/mL and the “EC50 (read off the curve)” value (VEGF) was roughly 0.2 µg/mL.

B3: Pertuzumab WT (antibody, V domains shown)
VH: EVQLVESGGGLVQPGGSLRLSCAASGFTFTDYTMDWVRQAPGKGLEWVADVNPNSGGSIYNQRFKGRFTLSVDRSKNTLYLQMNSLRAEDTAVYYCARNLGPSFYFDYWGQGTLVTVSS
VL: DIQMTQSPSSLSASVGDRVTITCKASQDVSIGVAWYQQKPGKAPKLLIYSASYRYTGVPSRFSGSGSGTDFTLTISSLQPEDFATYYCQQYYIYPYTFGQGTKVEIKR
B3: no binding (tested: 1 (axis 'Ab Conc.', no unit printed)) (HER3 [1]).

B4: DL11 WT (antibody, V domains shown)
VH: EVQLVESGGGLVQPGGSLRLSCAASGFTLSGDWIHWVRQAPGKGLEWLGEISAAGGYTDYADSVKGRFTISADTSKNTAYLQMNSLRAEDTAVYYCARESRVSFEAAMDYWGQGTLVTVSS
VL: DIQMTQSPSSLSASVGDRVTITCRASQDLATDVAWYQQKPGKAPKLLIYSASFLYSGVPSRFSGSGSGTDFTLTISSLQPEDFATYYCQQSEPEPYTFGQGTKVEIKR
notes: also called MEHD7945A
Work on B4 yielded a Kd (HER1) of 0.0415 nM.

B5: pertuzumab/DL11 bispecific antibody (bispecific antibody, human IgG1, kappa)
light 1: DIQMTQSPSSLSASVGDRVTITCKASQDVSIGVAWYQQKPGKAPKLLIYSASYRYTGVPSRFSGSGSGTDFTLTISSLQPEDFATYYCQQYYIYPYTFGQGTKVEIKRTVAAPSVFIFPPSDEDLKSGTASVVCLLDNFYPREAKVQWKVDNALQSGNSQESVTEQDSKDSTYSLSSTLTLSKADYEKHKVYACEVTHQGLSSPVTKSFNRGEC
heavy 1: not shown
light 2: DIQMTQSPSSLSASVGDRVTITCRASQDLATDVAWYQQKPGKAPKLLIYSASFLYSGVPSRFSGSGSGTDFTLTISSLQPEDFATYYCQQSEPEPYTFGQGTKVEIKRTVAAPSVFIFPPSDEKLKSGTASVVCLLKNFYPREAKVQWKVDNALQSGNSQESVTEQDSKDSTYSLSSALTLSKADYEKHKVYACEVTHQGLSSPVTKSFNRGEC
heavy 2: not shown
notes: Human IgG1/kappa bispecific with four different chains; Expressed in Freestyle 293 cells and purified by protein A, gel filtration and the cation exchange main peak; also called P/D; P/D bi-specific
With B5 the Kd (HER1) was 0.0898 nM and the Kd (HER3 [2]) was 0.0898 nM.
